B1: Alanine--glyoxylate aminotransferase, P21549 (parent)
chain: MASHKLLVTPPKALLKPLSIPNQLLLGPGPSNLPPRIMAAGGLQMIGSMSKDMYQIMDEIKEGIQYVFQTRNPLTLVISGSGHCALEAALVNVLEPGDSFLVGANGIWGQRAVDIGERIGARVHPMTKDPGGHYTLQEVEEGLAQHKPVLLFLTHGESSTGVLQPLDGFGELCHRYKCLLLVDSVASLGGTPLYMDRQGIDILYSGSQKALNAPPGTSLISFSDKAKKKMYSRKTKPFSFYLDIKWLANFWGCDDQPRMYHHTIPVISLYSLRESLALIAEQGLENSWRQHREAAAYLHGRLQALGLQLFVKDPALRLPTVTTVAVPAGYDWRDIVSYVIDHFDIEIMGGLGPSTGKVLRIGLLGCNATRENVDRVTEALRAALQHCPKKKL

Variants of: B1
Settings: Homo sapiens; pH 7.4; Thermal; DSC; Hepes 20 mM; NaCl 200 mM; transition: 2; reversible: No; structure 1H0C; whole UniProt chain shown

MASHKLLVTPPKALLKPLSIPNQLLLGPGPSNLPPRIMAAGGLQMIGSMSKEMYQIMDEIKEGIQYVFQTRNPLTLVISGSGHCALEAALVNVLEPGDSFLVGANGIWGQRAVDIGERIGARVHPMTKDPGGHYTLQEVEEGLAQHKPVLLFLTHGESSTGVLQPLDGFGELCHRYKCLLLVDSVASLGGTPLYMDRQGIDILYSGSQKALNAPPGTSLISFSDKAKKKMYSRKTKPFSFYLDIKWLANFWGCDDQPRMYHHTIPVISLYSLRESLALIAEQGLENSWRQHREAAAYLHGRLQALGLQLFVKDPALRLPTVTTVAVPAGYDWRDIVSYVMDHFDIEIMGGLGPSTGKVLRIGLLGCNATRENVDRVTEALRAALQHCPKKKL [D52E I340M]
Tm: 86.9 °C
change of melting temperature, mutant - wild type (higher = more stable): 16.9 °C
unfolding enthalpy (calorimetric): 573 kcal/mol

MASHKLLVTPPKALLKPLSIPNQLLLGPGPSNLPPRIMAAGGLQMIGSMSKDMYQIMDEIKEGIQYVFQTRNPLTLVISGSGHCALEAALVNVLEPGDSFLVGANGIWGQRAADIGERIGARVHPMTKDPGGHYTLQEVEEGLAQHKPVLLFLTHGESSTGVLQPLDGFGELCHRYKCLLLVDSVASLGGTPLYMDRQGIDILYSGSQKALNAPPGTSLISFSDKAKKKMYSRKTKPFSFYLDIKWLANFWGCDDQPRMYHHTIPVISLYSLRESLALIAEQGLENSWRQHREAAAYLHGRLQALGLQLFVKDPALRLPTVTTVAVPAGYDWRDIVSYVIDHFDIEIMGGLGPSTGKVLRIGLLGCNATRENVDRVTEALRAALQHCPKKKL [V113A]
Tm: 83.2 °C
change of melting temperature, mutant - wild type (higher = more stable): 13.2 °C
unfolding enthalpy (calorimetric): 502 kcal/mol

MASHKLLVTPPKALLKPLSIPNQLLLGPGPSNLPPRIMAAGGLQMIGSMSKDMYQIMDEIKEGIQYVFQTRNPLTLVISGSGHCALEAALVNVLEPGDSFLVGANGIWGQRAVDIGERIGARVHPMTKDPGGHYTLQEVEEGLAQHKPVLLFLTHGESSTGVLQPLDGFGELCHRYKCLLLVDSVASLGGTPLYMDRQGIDILYSGSQKALNAPPGTSLISFSDKAKKKMYSRKTKPFSFYLDIKWLANFWGCDDQPRMYHHTIPVISLYSLRESLALIAEQGLENSWRQHREAAAYLHGRLQALGLQLFVKDPALRLPTVTTVAVPAGYDWRDIVSYVMDHFDIEIMGGLGPSTGKVLRIGLLGCNATRENVDRVTEALRAALQHCPKKKL [I340M]
Tm: 84.1 °C
change of melting temperature, mutant - wild type (higher = more stable): 14.1 °C
unfolding enthalpy (calorimetric): 530 kcal/mol
